Target: wild-type HIV-1 YU-2 Env gp120, soluble monomeric (HIV-1 YU-2, UniProt P35961)

B1: mAb F105 (antibody, V domains shown)
VH: QVQLQESGPGLVKPSETLSLTCTVSGGSISSHYWSWIRQSPGKGLQWIGYIYYSGSTNYSPSLKSRVTISVETAKNQFSLKLTSMTAADTAVYYCARGPVPAVFYGDYRLDPWGQGTLVTVSS
VL: EIVLTQSPGTLSLSAGERATLSCRASQSVSSRYLAWYQQKPGQAPRLLIYGASSRATGIPDRFSGSGSGTDFTLTISRVEPEDFAVYYCQQYDNSVCTFGQGTKLEIK
  Kd: 24 nM

Reference: PMC4497506 (Journal of medicinal chemistry, 2015)
